± gives the uncertainty stated by the source.
B1: PMS1 protein homolog 1, residues 572 to 637; numbered along this chain, P54277 (parent)
chain: KKPMSASALFVQDHRPQFLIENPKTSLEDATLQIEELWKTLSEEEKLKYEEKATKDLERYNSQMKR
B2: TOX high mobility group box family member 3, residues 256 to 323; numbered along this chain, O15405 (parent)
chain: QKPVSAYALFFRDTQAAIKGQNPNATFGEVSKIVASMWDSLGEEQKQVYKRKTEAAKKEYLKALAAYR

Variants of: B1
Experiment: abundance fitness (aPCA) (normalised: wild type 0, dead -1); higher = more abundant; growth selection in yeast, the domain comes from the species named
Conditions: Homo sapiens

Point of comparison: D56H, abundance fitness -0.172 ± 0.12. Against it:
- S42A — within error, -0.085 ± 0.064
- S42Q — within error, -0.322 ± 0.063
- S42L — lower, -0.801 ± 0.056
- S42M — lower, -0.813 ± 0.088
- S42Y — lower, -1.21 ± 0.15
- S42N — within error, -0.135 ± 0.21
- L9T — within error, -0.287 ± 0.15
- L9P — lower, -0.98 ± 0.25
- L9Q — within error, 0.032 ± 0.16
- L9S — within error, -0.254 ± 0.12
- L57S — within error, -0.135 ± 0.076
- L57E — within error, -0.066 ± 0.067
- L57V — within error, -0.119 ± 0.051
- L57P — within error, -0.342 ± 0.091
- L57F — within error, -0.17 ± 0.12
- L57K — within error, -0.123 ± 0.088
- L57D — within error, 0.024 ± 0.079
- K48L — within error, -0.081 ± 0.074
- K48C — within error, 0.041 ± 0.17
- K48S — within error, -0.135 ± 0.072
- K48P — within error, -0.09 ± 0.1
- K48I — within error, -0.309 ± 0.15
- K48G — within error, -0.28 ± 0.13
- L47S — within error, -0.039 ± 0.1
- L47F — within error, -0.085 ± 0.16
- L47C — within error, -0.149 ± 0.12
- L47K — within error, -0.235 ± 0.16
- Q63E — within error, -0.038 ± 0.14
- Q63L — within error, -0.109 ± 0.067
- Q63T — within error, -0.072 ± 0.088
- Q63I — within error, -0.348 ± 0.17
- Q63Y — within error, -0.078 ± 0.088
- Q63D — within error, 0.079 ± 0.15
- L27T — within error, -0.101 ± 0.14
- L27A — within error, -0.127 ± 0.18
- L27S — within error, -0.048 ± 0.14
- L27Y — within error, -0.079 ± 0.16
- L27G — within error, -0.308 ± 0.12
- E21D — within error, -0.446 ± 0.24
- A6Q — lower, -0.493 ± 0.18
- A6G — within error, -0.306 ± 0.083
- A6M — lower, -0.704 ± 0.15
- A6I — lower, -1.17 ± 0.23
- A6S — within error, -0.195 ± 0.22
- K1F — within error, -0.498 ± 0.26
- E43C — within error, -0.102 ± 0.073
- E43F — within error, -0.234 ± 0.077
- E43A — within error, 0.004 ± 0.067
- E43H — within error, -0.087 ± 0.11
- E43P — within error, -0.086 ± 0.067
- E43R — within error, -0.025 ± 0.059
- Y60F — within error, 0.063 ± 0.18
- Y60K — within error, -0.075 ± 0.11
- Y60V — within error, -0.083 ± 0.087
- Y60R — within error, -0.07 ± 0.055
- Y60D — within error, 0.026 ± 0.11
- Y60C — within error, -0.002 ± 0.13
- Y60T — within error, -0.039 ± 0.11
- Y60H — within error, -0.075 ± 0.13
- P16R — within error, -0.08 ± 0.12
- P16M — within error, -0.447 ± 0.21
- P16V — lower, -0.47 ± 0.12
- P16S — within error, -0.214 ± 0.16
- P16D — higher, 0.118 ± 0.15
- A8G — within error, -0.223 ± 0.13
- A8V — lower, -0.457 ± 0.15
- T25A — higher, 0.042 ± 0.081
- T25K — within error, -0.302 ± 0.15
- T25C — within error, -0.159 ± 0.16
- T25L — within error, -0.096 ± 0.092
- T25N — within error, -0.192 ± 0.12
- E58R — within error, -0.025 ± 0.053
- E58I — within error, -0.179 ± 0.097
- E58T — within error, -0.155 ± 0.065
- E58P — within error, -0.257 ± 0.073
- E58S — within error, -0.099 ± 0.056
- E58D — within error, -0.047 ± 0.095
- D56P — lower, -0.423 ± 0.087
- D56A — within error, -0.049 ± 0.12
- D56L — within error, -0.142 ± 0.079
- D56F — within error, -0.244 ± 0.19
- D56C — within error, -0.163 ± 0.083
- D56T — within error, -0.145 ± 0.11
- R59C — within error, -0.121 ± 0.069
- R59A — higher, 0.05 ± 0.082
- R59Q — higher, 0.087 ± 0.085
- R59T — within error, -0.063 ± 0.079
- R59S — within error, -0.017 ± 0.059

Variants of: B2
Experiment: as above
Conditions: Homo sapiens

Point of comparison: K52M, abundance fitness -0.373 ± 0.074. Against it:
- L9T — higher, -0.039 ± 0.084
- L9M — higher, -0.035 ± 0.081
- L9C — higher, -0.106 ± 0.1
- D39A — higher, -0.026 ± 0.064
- D39F — higher, -0.167 ± 0.07
- Y60I — within error, -0.556 ± 0.2
- K2C — within error, -0.434 ± 0.13
- K57W — within error, -0.381 ± 0.11
- L64N — higher, 0.173 ± 0.1
- L64W — within error, -0.227 ± 0.08
- L64P — higher, 0.33 ± 0.071
- L61N — higher, -0.068 ± 0.13
- L61Y — higher, -0.087 ± 0.099
- A55K — higher, 0.049 ± 0.057
- A55I — higher, -0.148 ± 0.09
- N24H — higher, 0.028 ± 0.097
- P23D — lower, -0.922 ± 0.39
- P23S — within error, -0.335 ± 0.069
- A66C — higher, -0.038 ± 0.11
- Q15G — lower, -0.6 ± 0.12
- G28P — higher, 0.05 ± 0.049
- S31H — within error, -0.265 ± 0.11
- S31W — lower, -0.696 ± 0.15
- E54S — higher, -0.211 ± 0.052
- A8D — higher, 0.039 ± 0.15
- R51K — higher, 0.05 ± 0.084
- Q45N — within error, -0.232 ± 0.16
- F10D — lower, -0.752 ± 0.23
- E44C — higher, 0.023 ± 0.18
- E44N — higher, -0.11 ± 0.13
- E44F — lower, -0.541 ± 0.061
- E44I — within error, -0.613 ± 0.19
- Q21C — within error, -0.256 ± 0.13
- Q21I — within error, -0.346 ± 0.084
- E59N — within error, -0.246 ± 0.15
- E59R — higher, -0.162 ± 0.053
- I33Q — higher, -0.122 ± 0.092
- I18H — lower, -0.902 ± 0.34
- I18N — within error, -0.72 ± 0.41
- I18C — lower, -0.685 ± 0.16
- F27C — higher, -0.188 ± 0.095
- F27I — higher, -0.071 ± 0.22
- F27T — higher, 0.098 ± 0.069
- L41H — lower, -0.766 ± 0.19
- M37C — higher, -0.186 ± 0.084
- M37N — higher, -0.114 ± 0.13
- M37Y — lower, -0.826 ± 0.32
- V48I — within error, -0.133 ± 0.19
- A63D — higher, 0.08 ± 0.081
- S40C — within error, -0.338 ± 0.15
- S40H — higher, -0.092 ± 0.12
- Q47I — within error, -0.498 ± 0.49
- K58E — higher, 0.044 ± 0.097
- A16Y — within error, -0.564 ± 0.15
- A16F — higher, -0.164 ± 0.11
- A16W — within error, -0.324 ± 0.093
- T26R — within error, -0.266 ± 0.049
- T26P — within error, -0.332 ± 0.071
- D13G — lower, -0.855 ± 0.22
- K62R — higher, -0.002 ± 0.038
- K62N — higher, -0.069 ± 0.069
- N22V — higher, -0.149 ± 0.083
- N22Q — higher, -0.182 ± 0.073
- N22R — higher, -0.044 ± 0.057
- S36N — higher, -0.054 ± 0.076
- F11A — higher, -0.19 ± 0.068
- F11R — higher, -0.139 ± 0.085
- E43D — higher, -0.151 ± 0.12
- E43G — within error, -0.43 ± 0.099
- A6T — within error, -0.6 ± 0.18
- P3I — within error, -0.228 ± 0.096
- P3G — higher, 0.033 ± 0.049
- A56R — higher, -0.201 ± 0.054
- A56I — within error, -0.167 ± 0.21
- W38Y — within error, -0.206 ± 0.14
- Y7A — within error, -0.498 ± 0.14
- T53W — higher, -0.152 ± 0.055
